Experimental data from patent publication US20200231956.

Target: dipeptides with a proline at the second position

B1: aminopeptidase T from Thermus aquaticus, with a Cys added at the N-terminus and a 6xHis at the C-terminus (protein)
chain: MCDAFTENLNKLAELAIRVGLNLEEGQEIVATAPIEAVDFVRLLAEKAYENGASLFTVLYGDNLIARKRLALVPEAHLDRAPAWLYEGMAKAFHEGAARLAVSGNDPKALEGLPPERVGRAQQAQSRAYRPTLSAITEFVTNWTIVPFAHPGWAKAVFPGLPEEEAVQRLWQAIFQATRVDQEDPVAAWEAHNRVLHAKVAFLNEKRFHALHFQGPGTDLTVGLAEGHLWQGGATPTKKGRLCNPNLPTEEVFTAPHRERVEGVVRASRPLALSGQLVEGLWARFEGGVAVEVGAEKGEEVLKKLLDTDEGARRLGEVALVPADNPIAKTGLVFFDTLFDENAASHIAFGQAYAENLEGRPSGEEFRRRGGNESMVHVDWMIGSEEVDVDGLLEDGTRVPLMRRGRWVIHHHHHH
  aminopeptidase assay, cleavage of the N-terminal amino acid: TaqAPT cleaves dipeptides even with a proline at the second position
